Laboratory results: paper PMC7911018, “Effect of Humanizing Mutations on the Stability of the Llama Single-Domain Variable Region” (Biomolecules, 2021)

Target: T1, HER2 ectodomain-Fc (96 kDa) (Homo sapiens, UniProt P04626)
T1 construct: human epidermal growth factor receptor 2 (HER2), ectodomain; also called extracellular domain of HER2; human epidermal growth factor receptor 2
Assay: SPR; Biacore T100, 25 °C; HER2 ectodomain-Fc amine-coupled on a CM5 chip at 1270 RU; VHHs injected as analytes at 7 concentrations between 250 and 3.5 nM in 20 mM Hepes, 150 mM NaCl, 3 mM EDTA, 0.005% Tween 20, pH 7.4; 1:1 Langmuir fit
Settings: both partners purified

B1: VHH A10 (anti-HER2 nanobody) (VHH)
VHH: DVQLQASGGGFVQPGGSLRLSCAASGATSNISNMGWFRQAPGKEREFVSAISRAESRPLYYADSVKGRFTISRDNSKNTVYLQMNSLRAEDTATYYCAYMPLVRHKAYWGQGTQVTVSS
notes: anti-HER2 VHH from a synthetic library with camelid FW2 hallmarks FERF; also called A10 wt; source: expressed in bacteria, purified (IMAC, SEC)
B1: binds.
